{"source": "patent US20220326223", "proteins": {"B1": {"name": "human ADAMTS4 (A disintegrin and metalloproteinase with thrombospondin motifs 4) (protein)", "chain": "FASLSRFVETLVVADDKMAAFHGAGLKRYLLTVMAAAAKAFKHPSIRNPVSLVVTRLVILGSGEEGPQVGPSAAQTLRSFCAWQRGLNTPEDSDPDHFDTAILFTRQDLCGVSTCDTLGMADVGTVCDPARSCAIVEDDGLQSAFTAAHELGHVFNMLHDNSKPCISLNGPLSTSRHVMAPVMAHVDPEEPWSPCSARFITDFLDNGYGHCLLDKPEAPLHLPVTFPGKDYDADRQCQLTFGPDSRHCPQLPPPCAALWCSGHLNGHAMCQTKHSPWADGTPCGPAQACMGGRCLHMDQLQDFNIPQAGGWGPWGPWGDCSRTCGGGVQFSSRDCTRPVPRNGGKYCEGRRTRFRSCNTEDCPTGSALTFREEQCAAYNHRTDLFKSFPGPMDWVPRYTGVAPQDQCKLTCQARALGYYYVLEPRVVDGTPCSPDSSSVCVQGRCIHAGCDRIIGSKKKFDKCMVCGGDGSGCSKQSGSFRKFRYGYNNVVTIPAGATHILVRQQGNAGHRSIYLALKLPDGSYALNGEYTLMPSPTDVVLPGAVSLRYSGATAASETLSGHGPLAQPLTLQVLVAGNPQDTRLRYSFFVPRPTPSTPRPTPQDWLHRRAQILEILRRRPWAGRK"}}, "target": "human APP (695 amino acid isoform), P05067"}
{"protein": "B1", "values": [{"measurement": "production amounts of APP669-711 (Aβ(-3-40)) and APP669-709 (Aβ(-3-38)) in culture supernatant (IP-MS), ADAMTS4 vector:empty vector 10:1 in APP stable HEK", "result": "tended to be rather slightly increased"}]}
